The results in this text go back to publication PMC6112861 (Nature, 2018).

To fix the notation:
B1: Ost1 (natural protein, S. cerevisiae, UniProt P41543 23-476, looked up)
chain: AQYEPPATWENVDYKRTIDVSNAYISETIEITIKNIASEPATEYFTAFESGIFSKVSFFSAYFTNEATFLNSQLLANSTTAPGDDGESEIRYGIIQFPNAISPQEEVSLVIKSFYNTVGIPYPEHVGMSEEQHLLWETNRLPLSAYDTKKASFTLIGSSSFEEYHPPNDESLLGKANGNSFEFGPWEDIPRFSSNETLAIVYSHNAPLNQVVNLRRDIWLSHWASTIQFEEYYELTNKAAKLSKGFSRLELMKQIQTQNMRQTHFVTVLDMLLPEGATDHYFTDLVGLVSTSHAERDHFFIRPRFPIFGGWNYNFTVGWTNKLSDFLHVSSGSDEKFVASIPILNGPPDTVYDNVELSVFLPEGAEIFDIDSPVPFTNVSIETQKSYFDLNKGHVKLTFSYRNLISQVANGQVLIKYDYPKSSFFKKPLSIACYIFTALMGVFVLKTLNMNVTN
modifications: N-glycan at Asn336
B3: Swp1 (natural protein, S. cerevisiae, UniProt Q02795 20-286, looked up)
chain: YVAQDVHVSFPSTAGKSRVMIGKVEPRIGIDETVPTTITVEDPNEVIQVNFAIESTNKPFQNTLLIGLPNKNLEMAFEPEIKDNGKLSMYKYRIDLAKLDAALLQEASRSPEPIKATLILASSTAKPKENLFREILQLNLNFDVDHSDSSLVDKFGIKPEIHHIFHAEPKRVAKPIAVIFVLIIFITILSLIVTWLNSCAAAFNNIPTGVTAVYFLGFIATIVGFEVIFARYYLGTSIFETLFSSLYLGAPGLLTSTKFLRSFGQTI
B4: Wbp1 (natural protein, S. cerevisiae, UniProt P33767 21-430, looked up)
chain: TQTSRTLVLYDQSTEPLEEYSVYLKDLEQRNYKLEYLDINSTSTTVDLYDKEQRLFDNIIVFPTKGGKNLARQIPVKQLIKFFENEGNILCMSSPGAVPNTIRLFLNELGIYPSPKGHVIRDYFSPSSEELVVSSNHLLNKYVYNARKSEDFVFGESSAALLENREQIVPILNAPRTSFTESKGKCNSWTSGSQGFLVVGFQNLNNARLVWIGSSDFLKNKNQDSNQEFAKELLKWTFNEKSVIKSVHAVHSHADGTSYDEEPYKIKDKVIYSVGFSEWNGEEWLPHIADDIQFELRQVDPYYRLTLSPSGNDSETQYYTTGEFILPDRHGVFTFLTDYRKIGLSFTTDKDVKAIRHLANDEYPRSWEISNSWVYISAICGVIVAWIFFVVSFVTTSSVGKKLETFKKTN
modifications: N-glycan at Asn60

Holding throughout (experiment): cryo-EM structure
Experiment [1] has as its target T1, Stt3 (S. cerevisiae, UniProt P39007 1-718, N-glycan at Asn539).
T1 sequence (looked up): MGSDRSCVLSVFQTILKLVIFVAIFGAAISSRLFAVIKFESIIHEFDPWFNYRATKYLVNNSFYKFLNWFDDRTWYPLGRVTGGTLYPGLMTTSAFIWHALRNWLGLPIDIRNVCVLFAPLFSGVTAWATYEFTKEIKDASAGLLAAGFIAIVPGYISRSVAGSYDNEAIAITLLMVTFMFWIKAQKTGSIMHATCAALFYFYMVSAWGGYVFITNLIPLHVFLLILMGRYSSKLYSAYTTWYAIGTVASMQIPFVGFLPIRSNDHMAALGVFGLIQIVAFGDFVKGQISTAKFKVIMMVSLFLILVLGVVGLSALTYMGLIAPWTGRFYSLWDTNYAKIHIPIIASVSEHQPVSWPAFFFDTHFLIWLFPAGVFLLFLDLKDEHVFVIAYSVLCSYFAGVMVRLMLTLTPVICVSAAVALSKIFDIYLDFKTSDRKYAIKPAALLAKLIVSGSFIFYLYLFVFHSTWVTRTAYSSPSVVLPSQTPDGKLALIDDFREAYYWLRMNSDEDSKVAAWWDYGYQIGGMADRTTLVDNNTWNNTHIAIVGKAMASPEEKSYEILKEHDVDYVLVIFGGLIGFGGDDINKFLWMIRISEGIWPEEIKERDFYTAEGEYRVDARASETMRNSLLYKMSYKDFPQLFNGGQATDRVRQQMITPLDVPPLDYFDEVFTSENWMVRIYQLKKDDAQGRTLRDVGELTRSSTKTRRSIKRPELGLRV

Experiment [2] concerns the target B1.
Experiment [3] concerns the target B4.
The target of experiment [4] is B3.

With B1, in experiment [1], the binding result is given as “binds”.

B2: Ost5 (natural protein, S. cerevisiae, UniProt Q92316 1-86, looked up)
chain: MTYEQLYKEFHSSKSFQPFIHLDTQPKFAICGLIVTLAVLSSALFAVGSKSSYIKKLFFYTILSVIGSLFAGLTTVFASNSFGVYV
For the molecule B2, the binding result in experiment [2] is “binds”.

For B3, the binding result in experiment [1] and in experiment [3] was “binds” throughout.

With B4, in experiment [1], the binding result is on record as “binds”.

B5: Ost3 (natural protein, S. cerevisiae, UniProt P48439 23-350, looked up)
chain: MSSNRLLKLANKSPKKIIPLKDSSFENILAPPHENAYIVALFTATAPEIGCSLCLELESEYDTIVASWFDDHPDAKSSNSDTSIFFTKVNLEDPSKTIPKAFQFFQLNNVPRLFIFKPNSPSILDHSVISISTDTGSERMKQIIQAIKQFSQVNDFSLHLPMDWTPIITSTIITFITVLLFKKQSKLMFSIISSRIIWATLSTFFIICMISAYMFNQIRNTQLAGVGPKGEVMYFLPNEFQHQFAIETQVMVLIYGTLAALVVVLVKGIQFLRSHLYPETKKAYFIDAILASFCALFIYVFFAALTTVFTIKSPAYPFPLLRLSAPFK
With B5, the binding result in experiment [1] is recorded as “binds”.

B6: Ost2 (natural protein, S. cerevisiae, UniProt P46964 1-130, looked up)
chain: MAKAPKANTPKVTSTSSAVLTDFQETFKTSKRAYFAQIEKYPKLKLIDTFCFFLVLLGVIQCTFIILIRDNFPFNAFLAGFIICVGQFVLLMSLRLQLCNSFPGISKNRAFAEFIVASLILHFVCLHFIN
As to B6, the binding result in experiment [1], in experiment [3] and in experiment [4] was “binds” throughout.

Turning to MISDEQLNSLAITFGIVMMTLIVIYHAVDSTMSPKN (natural protein, S. cerevisiae) [Ost4-FLAG], in experiment [1], the binding result is “binds”.
